One may read the EC50 as the concentration giving half of the maximal effect. What is called Kd is the constant that tells how readily two partners part at equilibrium. By koff is commonly meant the first-order rate constant of dissociation. For orientation: kon means the rate constant with which the complex forms.

“And” between values parts separate entries of the source, which are not always exact repeats. Equal values may be shown once.

Test [1] deals with T1, human tissue factor, endogenous, on tumor cell lines (H596; TF-positive SW900) (human, UniProt P13726 33-295).
T1 construct: whole, on cells; also called hTF
Briefly: FACS on H596 cells.

Test [2] concerns the target full-length human tissue factor with C-terminal RGS-His6 tag, stably expressed on CHO-K1 cells (human, UniProt P13726 33-295). In words: cell-based or functional assay.
The target in test [3] is T2, soluble human tissue factor (extracellular domain of hTF with C-terminal RGS-His6 tag) (human, UniProt P13726 33-251).
T2 construct: leader left out (range computed from the stated lengths); Expressed in HEK293, purified on Ni-agarose and by gel filtration; also called soluble hTF; recombinant soluble hTF
Briefly: BIAcore X, soluble hTF immobilized on CM5 chip, mAb injected. The protocol:
Binding properties of anti-hTF mAbs were evaluated using BIAcore X. Briefly, a CM5 BIAcore biosensor chip was docked into the instrument and activated with 55 μl of 1:1 NHS/EDC at room temperature. The recombinant soluble hTF and BSA (10 μg/ml in 0.05 M acetate buffer, pH 4.5) were immobilized on the activated chips in flow cells 1 and 2, respectively. The immobilization was carried out at a flow rate of 5 μl/min until a resonance response of 1000-2000 RU was achieved. The chip was then blocked by injection of 55 μl of ethanolamine-HCl, pH 8.5 followed by 5 washes with 50 mM NaOH, 1 M NaCl. To measure the binding of anti-hTF mAbs to the soluble hTF immobilized to the chip, 30 μl of anti-hTF mAbs at varying concentrations in BIAcore running buffer (HBS-EP, Biacore AB, Uppsala, Sweden, Cat. #1001-08) were injected over the sensor surface at a flow rate of 5 μl/min. Following completion of the injection phase, dissociation was monitored in BIAcore running buffer at the same flow rate for 360 seconds. The surface was regenerated between injections using 30 μl of 50 mM NaOH-1 M NaCl. Individual sensorgrams were analyzed using BIAsimulation software.

B1: monoclonal anti-TF antibody TF277 (hybridoma cell line TF277, ATCC PTA-5675) (antibody, IgG1, V domains shown)
VH: QVQLQQPGAELVKPGASVKLSCKTSGYTFTSYWMHWVKQRPGQGLEWIGEIDPSDSYTNYNQKFKGKATLTVDKSSSTAYMQLSSLTSEDSAVYYCTYYVNYYAMDYWGQGTSVTVSS
VL: QIVLTQSPAIMSASLGEEITLTCSASSSVSYMHWYQQKSGTSPKLLIYSTSNLASGVPSRFSGSGSGTFYSLTISSVEAEDAADYYCHQWSSYPYTFGGGTKLEIK
In the case of B1, the EC50 in test [1] is 0.48 nM and 0.71 nM. Further, the “Coagulation (seconds), Ab 10 ug/ml” value in test [2] stood at 202 s. Besides, in test [3], the Kd was determined as 7.14 nM and the koff stood at 0.00312 s⁻¹.

B2: monoclonal anti-TF antibody TF196 (hybridoma cell line TF196, ATCC PTA-5196) (antibody, V domains shown)
VH: QVQLKQSGPELEKPGASVKISCKASGYSFTGYNMNWVKQSNGKSLEWIGNIDPYYGGTSYNQKFKGKATLTVDKSSNTAYMHLKSLTSEDSAVYYCARDSSSWFAYWGQGTLVTVSA
VL: DIQLTQSPASLSASVGETVTITCRASGNIHNYLAWYQQKQGKSPQLLVYNAKTLADGVPSRFSGSGSGTQYSLKINSLQPEDFGSYYCQHFWITPWTFGGGTKLEI
notes: Mouse hybridoma IgG
In test [3], B2 registered a Kd of 66.3 nM, a koff of 0.00279 s⁻¹ and a kon of 42100 M⁻¹ s⁻¹.

B3: monoclonal anti-TF antibody TF9 (hybridoma cell line TF9, ATCC PTA-5674) (antibody, V domains shown)
VH: DVKLQESGPDLVKPSQSLSLTCTVTGYSITSGYSWHWIRQFPGNKLEWMGYIHYSGSTKYNPSLKSRISITRDTSKNQFFLQLNSVTTEDTATYYCARLWSWYFDVWGAGTTVTVSS
VL: NIMMTQSPSSLAVSAGEKVTMSCKSSQSVLYSSNQKNYLAWYQQKPGQSPKLLIYWASTRESGVPDRFTGSGSGTDFTLTISSVQAEDLAVYYCHQYLSSYTFGGGTKLEIK
Regarding B3, the “Coagulation (seconds), Ab 10 ug/ml” value in test [2] came to 195 s. In test [3], this molecule registered a Kd of 1.84 nM and a koff of 0.000364 s⁻¹.

B4: monoclonal anti-TF antibody TF278 (hybridoma cell line TF278, ATCC PTA-5676) (antibody, IgG1, V domains shown)
VH: EVQLQQSGAELMKPGASVKISCKATGYTFSSYWIEWVKQRPGHGLEWIGEILPGSASTKYNEKFKGKATFTADTSSNTAYMQLSSLTSEDSAVYYCARDYYYGSSYGFAYWGQGTLVTVSS
VL: QAVVTQESALTTSPGETVTLTCRSSTGAVTTSNYANWVQEKPDHLFTGLIGGTNNRGPGVPARFSGSLIGDKAALTITGAQTEDEAVYFCALWYSNHWVFGGGTKLTVLG
As for B4, the EC50 in test [1] was 0.48 nM and 1.14 nM. Besides, the “Coagulation (seconds), Ab 10 ug/ml” value in test [2] stood at 190 s. For the same molecule, in test [3], binding was put at a Kd of 0.789 nM and the koff was determined as 0.000138 s⁻¹.

B5: monoclonal anti-TF antibody TF260 (hybridoma cell line TF260, ATCC PTA-5197) (antibody, V domains shown)
VH: QVQLKQSGAELMKPGASVKISCKATGYTFSSYWIEWVKQRPGHGLEWIGEILPGSGSTNYNEKFKGKATFTADTSSNTAYMQLSSLTSEDSAVYYCAREDRYDGDYWGQGTTLTVS
VL: QAVVTQESALTTSPGETVTLTCRSSTGAVTTSNYANWVQEKPDHLFTGLIGGTNNRAPGVPARFSGSLIGDKAALTITGAQTEDEAIYFCALWYSNHWVFGGGTKLTVLG
For B5, in test [3], the Kd worked out at 19.3 nM, the koff was found to be 0.000191 s⁻¹ and the kon was 9910 M⁻¹ s⁻¹.

B6: monoclonal anti-TF antibody TF392 (hybridoma cell line TF392, ATCC PTA-5677) (antibody, IgG1, V domains shown)
VH: QVQLKESGAELMKPGASVKISCKATGYTFSSYWIEWVKQRPGHGLEWIGEILPGSGSTNYNEKFKGKATFTADTSSNTAYMQLSSLTSEDSAVYYCARDRNGYVNYFDSWGQGTTLTVSS
VL: QAVVTQESALTTSPGETVTLTCRSSTGAVTTSNYANWVQEKPDHLFTGLIGGTNNRAPGVPARFSGSLIGDKAALTITGAQTEDEAIYFCALWYSNHWVFGGGTKLTVLG
B6: in test [1], the Bmax worked out at 58 and the EC50 stood at 6.29 nM. The “Coagulation (seconds), Ab 10 ug/ml” value in test [2] amounted to 210 s. In addition, in test [3], the affinity, expressed as Kd, was 2.46 nM and the koff was determined as 0.00013 s⁻¹.

Source of the values: patent US20040229301A1 (published 2004).
